Test results published in patent publication US20080299132A1, “Synergistic compositions for treating HIV-1” (Roche Palo Alto LLC, priority 2006, published 2008).

How the values were obtained:
CCR5 [1] = target: T1, CCR5 (Homo sapiens, UniProt P51681); test: Drug interaction (synergy) analysis of two-drug combinations in the CCF assay (Greco and Prichard models); format: cell-based; design: host or cells: CEM-NKr-CCR5-Luc
Description: For the in vitro cell-cell fusion studies, the possibility of either enhanced (synergy) or reduced (antagonism) efficacy of CCR5 antibodies in combination with CCR5 antagonists was considered.
The concentration response surface approach described by Greco et al. (Cancer Res. 1990 50:5318-5327) was used to analyze the data. A seven-parameter non-linear model (i) was fit to all experimental data including percent inhibitions calculated from replicates for all concentrations of the two drugs alone and in combination from two 384-well plates. […]
Loewe additivity or no interaction is indicated when the 95% confidence interval of a includes 0. Furthermore, the predicted additivity of the drugs combined was calculated by using all estimated parameters of the Greco model, except a that is fixed at 0. […]
Theoretical additive interactions were calculated from the dose response curves of the individual drugs based on the Bliss Independence equation. […]
The total sum of differences between the observed percent inhibitions and the upper bound of 95% confidence interval of predicted additive percentages is calculated as a statistically significant synergy volume ΣSYN. The total sum of differences between the observed percent inhibitions and the lower bound of 95% confidence interval of predicted additive percentages is calculated as a statistically significant antagonism volume ΣANT. […]

CCR5 [2] = target: T1, CCR5; conditions: cited from earlier work
CCR5 [3] = target: T1, CCR5; test: 3H-MVC binding to CHO-CCR5 cells after pre-incubation with CCR5 mAbs; conditions: CHO-CCR5 cells preincubated with 30 μg/mL mAb, 26 nM 3H-MVC
Procedure: The cells (2×10^5/100 μL) were pre-incubated with 30 μg/mL of CCR5 mAbs or PBS at RT for 1 h, then incubated with 26 nM of ^3H-MVC. At the end of various time points, cells were washed and the membrane bound ^3H-MVC was measured as described in Example 2. The maximal counts from the control samples were set as 100% binding and the relative binding for all other samples were calculated and the time course curves were generated based on these relative binding at each time point.
(§1) The potential for synergism should be maximized when both the antibody and the low molecular weight antagonist (or fusion or attachment inhibitor) can bind independently to the CCR5 receptor.

CCR5 [4] = target: T1, CCR5; test: CCR5 mAb binding to CHO-CCR5 cells after pre-incubation with CCR5 antagonists (FACS); conditions: pre-incubation with 50 nM MVC, AK602 or SCH-D, RT 1 h
Description: FIG. 4—The graph illustrates the effect of CCR5 antagonists on the time course of 5 mAb binding. […] The time course curves for each mAb in the presence of various antagonists were created based on their mean fluorescence intensity (MFI) values.
as §1

T1 sequence (P51681 whole entry): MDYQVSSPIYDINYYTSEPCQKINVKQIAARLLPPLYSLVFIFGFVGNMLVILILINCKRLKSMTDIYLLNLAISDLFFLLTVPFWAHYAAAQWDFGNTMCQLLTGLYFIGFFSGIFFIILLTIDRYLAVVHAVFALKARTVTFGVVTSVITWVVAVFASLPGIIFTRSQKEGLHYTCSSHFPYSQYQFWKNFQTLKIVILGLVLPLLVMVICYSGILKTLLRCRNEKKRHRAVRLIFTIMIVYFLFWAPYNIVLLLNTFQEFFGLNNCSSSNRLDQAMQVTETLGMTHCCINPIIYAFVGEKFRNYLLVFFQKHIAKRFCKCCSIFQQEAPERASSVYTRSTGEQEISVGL

drug interaction in words (synergy / antagonism) (CCR5 [1]; combination in cell-cell fusion assay)	effect on MVC binding, in words (CCR5 [3])	higher synergy than ROAb14 when combined with MVC (CCR5 [1]; combination with MVC)	mAb binding to CHO-CCR5 cells, effect of CCR5 antagonists, in words (CCR5 [4])	Molecule	effect on the binding of mAb 45523, in words (CCR5 [2])
highest synergy	–	–	–	CCCCN1C(=O)[C@@H]([C@H](O)C2CCCCC2)NC(=O)C12CCN(Cc1ccc(Oc3ccc(C(=O)O)cc3)cc1)CC2 [AK602, reference compound]	completely blocked
–	no effect	approximately 60%	unaffected	RoAb13: mouse anti-human CCR5 monoclonal antibody (Roche), binds the N-terminal end of CCR5 (antibody, V domains shown) VH: EVKLVESGGGLVKPGGSLKLSCAASGFTFSTYAMSWVRQTPEKRLEWVASISTGDNTYYTDSVRGRFTISRDNARNILYLQMSSLRSEDTAMYFCTRGRGDRGDLFGYWGQGTLVTVSS VL: DIVMSQSPSSLAVSVGEKVTMSCKSSQSLLYRGNQMNYLAWYQQKPGQSPKLLIYWASTRESGVPDRFTGSGSGTEFTLTISSVKAEDLTVYYCQQYYTYPRTFGGGTKLEIKR	–
